Reference: the supplement of paper PMC9112550, “Optimization of the antimicrobial peptide Bac7 by deep mutational scanning” (BMC Biology, 2022)

Test system: Escherichia coli TOP10
Assay: shrunken log2 fold change of peptide-encoding DNA abundance (4.5 h post-induction vs induction); higher = less antimicrobial activity (less host growth inhibition)
Settings: time post-induction: 4.5 h; library: site-saturation at positions 5, 18, 19, 20
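Further: peptides expressed intracellularly from a pBAD plasmid library in pooled LB shake-flask culture, induced with 0.3% L-arabinose, DNA abundance read by NGS, three biological replicates, DESeq2 with apeglm shrinkage.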

| Sequence | shrunken log2 fold change |
| --- | --- |
| RRIRVRPPRLPRPRPRPTNRPRP | 3.75 |
| RRIRGRPPRLPRPRPRPDCCPRP | 1.34 |
| RRIRSRPPRLPRPRPRPKGVPRP | 0.0137 |
| RRIRWRPPRLPRPRPRPILWPRP | 0.117 |
| RRIRMRPPRLPRPRPRPAKAPRP | 0.0749 |
| RRIRFRPPRLPRPRPRPLRWPRP | 0.59 |
| RRIRLRPPRLPRPRPRPKTKPRP | -0.021 |
| RRIRVRPPRLPRPRPRPTGAPRP | 0.47 |
| RRIRDRPPRLPRPRPRPNHKPRP | -0.661 |
| RRIRLRPPRLPRPRPRPTNNPRP | -0.524 |
| RRIRKRPPRLPRPRPRPQDGPRP | 0.013 |
| RRIRKRPPRLPRPRPRPNDDPRP | 0.414 |
| RRIRCRPPRLPRPRPRPLAKPRP | 1.69 |
| RRIRFRPPRLPRPRPRPIMSPRP | -0.0555 |
| RRIRGRPPRLPRPRPRPAWEPRP | 1.01 |
| RRIRQRPPRLPRPRPRPSWFPRP | -0.323 |
| RRIRCRPPRLPRPRPRPAFNPRP | -0.23 |
| RRIRKRPPRLPRPRPRPLHLPRP | -0.198 |
| RRIRLRPPRLPRPRPRPCYDPRP | 0.00693 |
| RRIRDRPPRLPRPRPRPQMRPRP | -0.0122 |
| RRIRFRPPRLPRPRPRPITKPRP | -0.0304 |
| RRIRKRPPRLPRPRPRPHWHPRP | -0.0666 |
| RRIRFRPPRLPRPRPRPQIHPRP | -0.995 |
| RRIRTRPPRLPRPRPRPTDTPRP | -0.0527 |
| RRIRERPPRLPRPRPRPWGHPRP | -0.118 |

| Sequence | shrunken log2 fold change |
| --- | --- |
| RRIRLRPPRLPRPRPRPMSTPRP | -0.302 |
| RRIRTRPPRLPRPRPRPAATPRP | 0.247 |
| RRIRYRPPRLPRPRPRPTGMPRP | 0.0495 |
| RRIRNRPPRLPRPRPRPCGFPRP | -0.0155 |
| RRIRRRPPRLPRPRPRPRFNPRP | -0.189 |
| RRIRHRPPRLPRPRPRPTQGPRP | 0.318 |
| RRIRTRPPRLPRPRPRPVYFPRP | -0.558 |
| RRIRVRPPRLPRPRPRPAFYPRP | -0.135 |
| RRIRNRPPRLPRPRPRPATMPRP | -0.1 |
| RRIRTRPPRLPRPRPRPSTDPRP | 0.201 |
| RRIRGRPPRLPRPRPRPIWEPRP | 0.019 |
| RRIRSRPPRLPRPRPRPTRRPRP | 0.109 |
| RRIRGRPPRLPRPRPRPYCHPRP | 0.054 |
| RRIRVRPPRLPRPRPRPGVQPRP | -0.0209 |
| RRIRCRPPRLPRPRPRPCWLPRP | -0.0409 |
| RRIRDRPPRLPRPRPRPVYAPRP | -0.025 |
| RRIRMRPPRLPRPRPRPSEWPRP | 0.0913 |
| RRIRLRPPRLPRPRPRPVGAPRP | 0.349 |
| RRIRYRPPRLPRPRPRPNRNPRP | -1 |
| RRIRLRPPRLPRPRPRPLLIPRP | -0.514 |
| RRIRHRPPRLPRPRPRPNQKPRP | -0.0319 |
| RRIRGRPPRLPRPRPRPRTNPRP | 0.588 |
| RRIRQRPPRLPRPRPRPMNVPRP | -0.0102 |
| RRIRMRPPRLPRPRPRPKAIPRP | 0.417 |
| RRIRSRPPRLPRPRPRPQFAPRP | 0.105 |

| Sequence | shrunken log2 fold change |
| --- | --- |
| RRIRYRPPRLPRPRPRPWIPPRP | -0.0119 |
| RRIRGRPPRLPRPRPRPWQLPRP | 0.372 |
| RRIRSRPPRLPRPRPRPSNPPRP | -0.257 |
| RRIRHRPPRLPRPRPRPLQPPRP | 0.157 |
| RRIRHRPPRLPRPRPRPPWPPRP | 0.504 |
| RRIRKRPPRLPRPRPRPSVRPRP | 0.528 |
| RRIRCRPPRLPRPRPRPMYPPRP | -0.375 |
| RRIRTRPPRLPRPRPRPCSDPRP | -0.104 |
| RRIRPRPPRLPRPRPRPRLFPRP | 1.92 |
| RRIRMRPPRLPRPRPRPVNGPRP | -0.0577 |
| RRIRYRPPRLPRPRPRPTGIPRP | -0.114 |
| RRIRTRPPRLPRPRPRPYKPPRP | -0.551 |
| RRIRMRPPRLPRPRPRPHQEPRP | 0.018 |
| RRIRDRPPRLPRPRPRPHIGPRP | -0.0522 |
| RRIRKRPPRLPRPRPRPRSWPRP | 0.833 |
| RRIRVRPPRLPRPRPRPTNPPRP | -0.296 |
| RRIRKRPPRLPRPRPRPQTWPRP | 0.134 |
| RRIRKRPPRLPRPRPRPISPPRP | 0.305 |
| RRIRCRPPRLPRPRPRPSCMPRP | -0.313 |
| RRIRMRPPRLPRPRPRPEPNPRP | 2.18 |
| RRIRERPPRLPRPRPRPAWAPRP | 0.0704 |
| RRIRDRPPRLPRPRPRPKYSPRP | -0.0792 |
| RRIRSRPPRLPRPRPRPLEHPRP | 0.0173 |
| RRIRVRPPRLPRPRPRPFKVPRP | -0.243 |
| RRIRRRPPRLPRPRPRPKQDPRP | 0.38 |

| Sequence | shrunken log2 fold change |
| --- | --- |
| RRIRVRPPRLPRPRPRPIQTPRP | -0.0164 |
| RRIRSRPPRLPRPRPRPCFDPRP | 0.11 |
| RRIRQRPPRLPRPRPRPKLWPRP | -0.0821 |
| RRIRRRPPRLPRPRPRPSYEPRP | -0.33 |
| RRIRMRPPRLPRPRPRPKRHPRP | 0.351 |
| RRIRHRPPRLPRPRPRPVHWPRP | 0.0039 |
| RRIRSRPPRLPRPRPRPEGKPRP | 0.0822 |
| RRIRWRPPRLPRPRPRPQNRPRP | 0.0839 |
| RRIRIRPPRLPRPRPRPADSPRP | -0.325 |
| RRIRFRPPRLPRPRPRPQFHPRP | -0.839 |
| RRIRPRPPRLPRPRPRPQDVPRP | -0.373 |
| RRIRWRPPRLPRPRPRPCFVPRP | -0.144 |
| RRIRCRPPRLPRPRPRPIMYPRP | -0.916 |
| RRIRWRPPRLPRPRPRPWFIPRP | -0.436 |
| RRIRHRPPRLPRPRPRPRNCPRP | -0.112 |
| RRIRSRPPRLPRPRPRPNERPRP | -0.395 |
| RRIRLRPPRLPRPRPRPDFDPRP | -0.047 |
| RRIRCRPPRLPRPRPRPEFDPRP | -0.0199 |
| RRIRNRPPRLPRPRPRPKIHPRP | -0.719 |
| RRIRERPPRLPRPRPRPGDDPRP | -0.152 |
| RRIRERPPRLPRPRPRPKKQPRP | -0.0932 |
| RRIRDRPPRLPRPRPRPPKNPRP | 0.344 |
| RRIRYRPPRLPRPRPRPLAGPRP | 0.0192 |
| RRIRWRPPRLPRPRPRPQWRPRP | -0.0345 |
| RRIRMRPPRLPRPRPRPMIAPRP | 0.0314 |

| Sequence | shrunken log2 fold change |
| --- | --- |
| RRIRYRPPRLPRPRPRPSWYPRP | -0.772 |
| RRIRERPPRLPRPRPRPQWAPRP | -0.0475 |
| RRIRWRPPRLPRPRPRPFFCPRP | 0.104 |
| RRIRVRPPRLPRPRPRPYYVPRP | -1.97 |
| RRIRDRPPRLPRPRPRPWKFPRP | 0.0062 |
| RRIRYRPPRLPRPRPRPHHKPRP | -0.319 |
| RRIRPRPPRLPRPRPRPCEIPRP | 0.0471 |
| RRIRVRPPRLPRPRPRPAFDPRP | -0.339 |
| RRIRGRPPRLPRPRPRPNMIPRP | 0.0819 |
| RRIRIRPPRLPRPRPRPTYKPRP | -1.09 |
| RRIRYRPPRLPRPRPRPTSKPRP | 0.902 |
| RRIRNRPPRLPRPRPRPHDYPRP | 0.0503 |
| RRIRWRPPRLPRPRPRPLAFPRP | 0.153 |
| RRIRRRPPRLPRPRPRPLEYPRP | -0.326 |
| RRIRCRPPRLPRPRPRPNRQPRP | -0.216 |
| RRIRERPPRLPRPRPRPHDIPRP | -0.0102 |
| RRIRERPPRLPRPRPRPGVWPRP | 0.44 |
| RRIRFRPPRLPRPRPRPGRNPRP | -0.173 |
| RRIRQRPPRLPRPRPRPSVHPRP | -0.276 |
| RRIRVRPPRLPRPRPRPEITPRP | -0.159 |
| RRIRLRPPRLPRPRPRPRGPPRP | 0.865 |
| RRIRARPPRLPRPRPRPTMVPRP | -0.0882 |
| RRIRERPPRLPRPRPRPFWCPRP | -0.014 |
| RRIRIRPPRLPRPRPRPTQEPRP | 0.0113 |
| RRIRKRPPRLPRPRPRPVEGPRP | -0.006 |

| Sequence | shrunken log2 fold change |
| --- | --- |
| RRIRPRPPRLPRPRPRPWRYPRP | -0.0238 |
| RRIRMRPPRLPRPRPRPQHKPRP | -0.0523 |
| RRIRSRPPRLPRPRPRPKKEPRP | 0.00678 |
| RRIRDRPPRLPRPRPRPRKRPRP | 0.382 |
| RRIRYRPPRLPRPRPRPRTAPRP | -0.0512 |
| RRIRQRPPRLPRPRPRPVQWPRP | -0.03 |
| RRIRRRPPRLPRPRPRPTNHPRP | -0.0627 |
| RRIRPRPPRLPRPRPRPQPGPRP | 0.204 |
| RRIRPRPPRLPRPRPRPGMFPRP | -0.0259 |
| RRIRCRPPRLPRPRPRPAADPRP | 0.341 |
| RRIRTRPPRLPRPRPRPYTCPRP | -0.0764 |
| RRIRTRPPRLPRPRPRPATGPRP | -0.123 |
| RRIRWRPPRLPRPRPRPEHFPRP | 0.00426 |
| RRIRRRPPRLPRPRPRPQFPPRP | 0.133 |
| RRIRSRPPRLPRPRPRPGKYPRP | -0.759 |
| RRIRWRPPRLPRPRPRPLKCPRP | 0.0309 |
| RRIRVRPPRLPRPRPRPRQTPRP | -0.0375 |
| RRIRARPPRLPRPRPRPIYFPRP | -0.0784 |
| RRIRQRPPRLPRPRPRPHWAPRP | -0.143 |
| RRIRVRPPRLPRPRPRPQPHPRP | 0.0498 |
| RRIRIRPPRLPRPRPRPDLNPRP | -0.211 |
| RRIRLRPPRLPRPRPRPERVPRP | 0.0357 |
| RRIRQRPPRLPRPRPRPHKWPRP | -0.2 |
| RRIRPRPPRLPRPRPRPLWRPRP | 0.446 |
| RRIRMRPPRLPRPRPRPHCFPRP | -0.0715 |
